In publication PMC7864924, “Structures of active-state orexin receptor 2 rationalize peptide and small-molecule agonist recognition and receptor activation” (Nature Communications, 2021):
Positions count from the first letter of the chain named.

T1: wildtype OX2R (Homo sapiens, UniProt O43614)
T1 sequence (O43614 1-444): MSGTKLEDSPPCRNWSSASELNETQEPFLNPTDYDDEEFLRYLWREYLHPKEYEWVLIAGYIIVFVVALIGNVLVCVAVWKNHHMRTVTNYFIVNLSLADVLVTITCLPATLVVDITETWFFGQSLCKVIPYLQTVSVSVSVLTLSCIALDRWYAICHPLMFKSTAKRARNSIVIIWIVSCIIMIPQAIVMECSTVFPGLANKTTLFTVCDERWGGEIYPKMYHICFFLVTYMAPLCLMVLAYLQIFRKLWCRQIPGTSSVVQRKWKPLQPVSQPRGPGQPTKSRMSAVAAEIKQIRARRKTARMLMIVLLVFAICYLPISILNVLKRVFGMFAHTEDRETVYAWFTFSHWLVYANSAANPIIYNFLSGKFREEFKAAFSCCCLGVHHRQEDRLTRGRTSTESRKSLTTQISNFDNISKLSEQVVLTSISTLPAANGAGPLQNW

T2: Engineered human orexin receptor 2 (OX2R) truncated after R389, ICL3 residues V261-A291 deleted, with an … (human, UniProt O43614 1-389, residues V261–A291 deleted, biotin on the Avi-tag (BirA biotin-protein ligase))
T2 construct: Orexin receptor type 2 (OX2R), human, truncated after residue R389, part of ICL3 (residues V261-A291) deleted; M1 is said to be present in the construct; Detergent-solubilised receptor (DDM/CHS); The PDB entries hold the construct without the Avi-tag; also called engineered OX2R; orexin receptor type 2; source: biotinylated with BirA; not shown: Avi-tag, N-terminal, kept
T2 sequence (looked up): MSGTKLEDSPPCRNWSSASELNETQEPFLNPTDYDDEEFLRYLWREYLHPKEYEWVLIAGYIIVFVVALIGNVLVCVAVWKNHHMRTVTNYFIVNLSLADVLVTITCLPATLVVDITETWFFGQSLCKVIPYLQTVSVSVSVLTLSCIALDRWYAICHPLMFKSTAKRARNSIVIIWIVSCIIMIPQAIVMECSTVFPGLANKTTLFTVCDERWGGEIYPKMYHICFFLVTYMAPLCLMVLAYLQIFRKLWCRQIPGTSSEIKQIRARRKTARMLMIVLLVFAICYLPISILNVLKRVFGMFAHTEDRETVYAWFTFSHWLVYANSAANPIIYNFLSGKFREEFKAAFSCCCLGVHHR

B1: Synthetic nanobody clone 56 (VHH)
VHH: QVQLVESGGGLVQAGGSLRLSCAASGFPVVSYNMKWYRQAPGKEREWVAAIYSFGSLGSWTHYADSVKGRFTISRDNAKNTVYLQMNSLKPEDTAVYYCHVYVGATYYGQGTQVTVS
notes: synthetic nanobody selected from the libraries of Zimmermann and coworkers by ribosome display and phage display; Host, tags and purification are told only for Sb51 (clone 51); also called Clone No. 56
B2: Synthetic nanobody clone 13 (VHH)
VHH: QVQLVESGGGLVQAGGSLRLSCAASGFPVNAREMYWYRQAPGKEREWVAAIVSKGSHTEYADSVKGRFTISRDNAKNTVYLQMNSLKPEDTAVYYCNVKDFGWWAVYYDYWGQGTQVTVS
notes: synthetic nanobody selected from the libraries of Zimmermann and coworkers by ribosome display and phage display; Host, tags and purification are told only for Sb51 (clone 51); also called Clone No. 13
B3: Synthetic nanobody clone 15 (VHH)
VHH: B2 VHH with N30K, A31Q, Y35A, V52W, S56A, E59V, A105N, V106R, Y107Q
notes: synthetic nanobody selected from the libraries of Zimmermann and coworkers by ribosome display and phage display; Host, tags and purification are told only for Sb51 (clone 51); also called Clone No. 15
B4: Synthetic nanobody clone 7 (VHH)
VHH: B2 VHH with N30L, A31R, R32Q, Y35F, V52W, H57T, F101Y, A105N, V106N, Y107W
notes: synthetic nanobody selected from the libraries of Zimmermann and coworkers by ribosome display and phage display; Host, tags and purification are told only for Sb51 (clone 51: E. coli C41(DE3), MBP fusion cleaved by TEV); also called Clone No. 7
B5: Synthetic nanobody clone 45 (VHH)
VHH: QVQLVESGGGLVQAGGSLRLSCAASGFPVYTYTMYWYRQAPGKEREWVAAITSEGISTAYADSVKGRFTISRDNAKNTVYLQMNSLKPEDTAVYYCEVYVGYFYHGQGTQVTVS
notes: synthetic nanobody selected from the libraries of Zimmermann and coworkers by ribosome display and phage display; Host, tags and purification are told only for Sb51 (clone 51); also called Clone No. 45
B6: Synthetic nanobody clone 46 (VHH)
VHH: B5 VHH with Y30D, T31A, T33V, T52A, E54Q, I56H, S57P, Q110R
notes: synthetic nanobody selected from the libraries of Zimmermann and coworkers by ribosome display and phage display; Host, tags and purification are told only for Sb51 (clone 51); also called Clone No. 46
B7: Synthetic nanobody clone 44 (VHH)
VHH: B5 VHH with Y30D, T52N, E54N, I56H, S57H, Y102W, F103W, H105Y
notes: synthetic nanobody selected from the libraries of Zimmermann and coworkers by ribosome display and phage display; Host, tags and purification are told only for Sb51 (clone 51); also called Clone No. 44
B8: Synthetic nanobody clone 55 (VHH)
VHH: B5 VHH with Y30Q, T31S, Y32H, T52N, E54T, I56Q, S57G
notes: synthetic nanobody selected from the libraries of Zimmermann and coworkers by ribosome display and phage display; Host, tags and purification are told only for Sb51 (clone 51); also called Clone No. 55
B9: synthetic nanobody Sb51 (VHH)
VHH: QVQLVESGGGLVQAGGSLRLSCAASGFPVGRVMYWYRQAPGKEREWVAAISSHGDMTAYADSVKGRFTISRDNAKNTVYLQMNSLKPEDTAVYYCEVYVGYFYHGQGTQVTVS
notes: in the coordinates deposited here (complex with compound 1); Supplementary Data 1 lists the hits from which Sb51 was chosen; source: E. coli C41(DE3) periplasm, MBP fusion, purified (NiNTA, TEV cleavage, NiNTA, cation exchange); not shown: His10, N-terminal, cleaved
B10: 34 (VHH)
VHH: B5 VHH with Y30N, T31N, Y32R, T33S, T52A, E54S, I56F, S57T, Y99V, F103W
B11: 43 (VHH)
VHH: QVQLVESGGGLVQAGGSLRLSCAASGFPVSYIGMEWYRQAPGKEREWVAAITGFGHWTAYADSVKGRFTISRDNAKNTVYLQMNSLKPEDTAVYYCEVQVGAKYYGQGTQVTVS
B12: 30 (VHH)
VHH: B5 VHH with Y30K, T52E, E54T, I56R, S57Y, Y102F
B13: 40 (VHH)
VHH: B5 VHH with V2L, Y30R, T31S, R38S, T52N, E54Q, I56N, S57T, F103W
B14: 54 (VHH)
VHH: B5 VHH with Y30Q, T31H, T33V, T52D, E54S, I56A, S57H, A59V, Y102W
B15: 31 (VHH)
VHH: B5 VHH with Y30T, T31E, Y32N, E54N, I56S, S57Q
B16: 42 (VHH)
VHH: B5 VHH with Y30N, Y32R, T33S, T52A, E54T, I56W, Y99E, F103W, H105Y
B17: 50 (VHH)
VHH: B5 VHH with Y30W, T31H, Y32D, T52G, E54T, I56N, S57L
B18: 48 (VHH)
VHH: B5 VHH with Y30A, T31M, Y32N, E54S, I56E, S57H
B19: 47 (VHH)
VHH: B5 VHH with Y30D, T31S, Y32K, T52A, E54A, I56H, S57L, Y99H, Y102W
B20: 49 (VHH)
VHH: B5 VHH with T31N, Y32N, T52S, E54G, I56S, S57N
B21: 41 (VHH)
VHH: B5 VHH with Y30N, T31S, T33V, T52G, E54T, I56E, S57Y, Y99F, H105Y
B22: 36 (VHH)
VHH: B5 VHH with Y30N, Y32H, E54N, I56Q, Y99R
B23: 53 (VHH)
VHH: B5 VHH with Y30N, Y32R, T33S, T52A, E54T, I56W
B24: 33 (VHH)
VHH: B5 VHH with Y30D, T31K, Y32A, T33H, T52D, E54T, I56S, S57Y, A59H, F103M
B25: 32 (VHH)
VHH: B5 VHH with Y30A, T31E, Y32K, T33S, T52A, E54N, I56V, S57L
B26: 57 (VHH)
VHH: B5 VHH with Y30S, T31Q, Y32K, T52A, I56Q, S57K
B27: 38 (VHH)
VHH: B5 VHH with Y32N, E54S, I56H, S57N, Y102W
B28: 35 (VHH)
VHH: QVQLVESGGGLVQAGGSLRLSCAASGFPVRWKSMAWYRQAPGKEREWVAAISSYGFWTEYADSVKGRFTISRDNAKNTVYLQMNSLKPEDTAVYYCIVHVGVSYRGQGTQVTVS
B29: 39 (VHH)
VHH: B28 VHH with R30K, Y54W, F56W, W57Y, I97Y, H99Y, V102H, S103T, R105H
B30: 37 (VHH)
VHH: B28 VHH with R30W, Y54F, F56W, W57Y, I97A, H99Y, V102S, S103Y, R105W, Q107R
B31: 52 (VHH)
VHH: B28 VHH with R30K, F56W, W57H, I97T, H99N, V102K, S103G, R105E

The molecules below were run against T1, wildtype OX2R (assay: Saturation binding of 125I-OxA to wildtype OX2R). Details: CHO cell membranes, wild-type OX2R, room temperature, 6 h, pH 7.4; mean ± s.e.m., n = 3.
For “125I-OxA: radioligand, 125I-labelled OxA (PerkinElmer) (QPLPDCCRQKTCSCRLYELLHGAGNHAAGILTL)”, the “Dissociation constant, pKD” value was 9.12 ± 0.05.

Each molecule was assayed against T2, Engineered human orexin receptor 2 … (assay: grating-coupled interferometry; WAVE system (Creoptix); agonist-bound OX2R immobilised via the biotinylated Avi-tag on a neutravidin-coated WAVEchip 4PCP; nanobody as analyte). Details: both partners purified.
B1 was tested, and the Kd was 0.5 nM.
For B2, the Kd was 12 nM.
In the case of B3, the Kd is reported as 300 nM.
For B4, the Kd was 11 nM.
Work on B5 yielded a Kd of 11 nM.
Molecule B6 has a Kd of 4.2 nM.
B7 gave a Kd of 7.7 nM.
In the case of B8, the Kd is reported as 7.3 nM.

These molecules were tested against T3, engineered OX2R carrying an additional amino-terminal Avi-tag, biotinylated (Homo sapiens, UniProt O43614, residues V261–A291 deleted, biotin on the Avi-tag (BirA biotin-protein ligase)) (assay: grating-coupled interferometry; WAVE system (Creoptix); agonist-bound OX2R immobilised via the biotinylated Avi-tag on a neutravidin-coated WAVEchip 4PCP). Details: both partners purified.
T3 construct: orexin receptor type 2, human; as m1: truncated after residue R389, part of ICL3 (V261–A291) deleted; source: Expi293 cells, transiently transfected, purified in the presence of 50 µM small-molecule agonist, biotinylated with BirA; not shown: Avi-tag, N-terminal, kept
B9 was tested, and the Kd was about 0.6 nM.

What follows are molecules tested against T3, engineered OX2R carrying an additional … (assay: not given). Details: not given.
B10: binds.
B11: binds.
B12: binds.
B13: binds.
B14: binds.
B15: binds.
B16: binds.
B17: binds.
B18: binds.
B19: binds.
B20: binds.
B21: binds.
B22: binds.
B23: binds.
B24: binds.
B25: binds.
B26: binds.
B27: binds.
B28: binds.
B29: binds.
B30: binds.
B31: binds.
